Data from patent EP1241259A1 (UNIVERSITE LIBRE DE BRUXELLES, dated 2002).

Target: ORL1 (Opioid Receptor-Like 1) receptor stably expressed on recombinant CHO(ORL1^+) cells (UniProt P41146 1-370, limits assumed)
Experiment: cell-based or functional assay

Sequence of ORL1 (Opioid Receptor-Like 1) receptor stably expressed on recombinant CHO(ORL1^+) cells (P41146 whole entry): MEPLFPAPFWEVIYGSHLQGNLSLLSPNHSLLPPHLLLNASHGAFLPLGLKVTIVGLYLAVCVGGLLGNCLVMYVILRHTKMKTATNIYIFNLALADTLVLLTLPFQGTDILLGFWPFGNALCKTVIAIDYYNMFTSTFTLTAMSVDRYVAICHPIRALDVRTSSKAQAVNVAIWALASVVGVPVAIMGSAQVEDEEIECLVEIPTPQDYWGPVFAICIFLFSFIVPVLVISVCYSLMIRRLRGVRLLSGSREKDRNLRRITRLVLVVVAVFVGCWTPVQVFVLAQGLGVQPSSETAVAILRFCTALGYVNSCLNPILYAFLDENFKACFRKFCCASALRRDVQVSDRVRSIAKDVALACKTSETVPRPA

inhibition of forskolin-induced accumulation of cAMP in CHO cells expressing the receptor, IC50: 1 nM
B1: ^1Tyr analogue of the synthetic heptadecapeptide (peptide)
peptide: YGGFTGARKSARKLANQ
